# Data published in IntAct's records for PubMed 28515320.
# B1: Nectin-2 (Homo sapiens), Q92692 (parent)
# chain: MARAAALLPSRSPPTPLLWPLLLLLLLETGAQDVRVQVLPEVRGQLGGTVELPCHLLPPVPGLYISLVTWQRPDAPANHQNVAAFHPKMGPSFPSPKPGSERLSFVSAKQSTGQDTEAELQDATLALHGLTVEDEGNYTCEFATFPKGSVRGMTWLRVIAKPKNQAEAQKVTFSQDPTTVALCISKEGRPPARISWLSSLDWEAKETQVSGTLAGTVTVTSRFTLVPSGRADGVTVTCKVEHESFEEPALIPVTLSVRYPPEVSISGYDDNWYLGRTDATLSCDVRSNPEPTGYDWSTTSGTFPTSAVAQGSQLVIHAVDSLFNTTFVCTVTNAVGMGRAEQVIFVRETPNTAGAGATGGIIGGIIAAIIATAVAATGILICRQQRKEQTLQGAEEDEDLEGPPSYKPPTPKAKLEAQEMPSQLFTLGASEHSPLKTPYFDAGASCTEQEMPRYHELPTLEERSGPLHPGATSLGSPIPVPPGPPAVEDVSLDLEDEEGEEEEEYLDKINPIYDALSYSSPSDSYQGKGFVMSRAMYV
# partner: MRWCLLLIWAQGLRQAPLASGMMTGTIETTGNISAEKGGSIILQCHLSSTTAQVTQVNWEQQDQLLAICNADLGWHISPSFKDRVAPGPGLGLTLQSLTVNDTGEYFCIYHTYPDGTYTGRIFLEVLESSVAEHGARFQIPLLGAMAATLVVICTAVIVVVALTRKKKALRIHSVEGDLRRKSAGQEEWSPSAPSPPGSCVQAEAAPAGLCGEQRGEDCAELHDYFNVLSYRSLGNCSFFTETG
# Variants of: B1
# Settings: with tigit_human TIGIT
row,effect of a mutation on the interaction,Variant
1,decreasing interaction strength,L67Q
2,decreasing interaction strength,A83V
3,decreasing interaction strength,M89A
4,with no effect,E141A
5,disrupting interaction strength,F145A

# More lines, now with the values behind:
row,Variant,effect of a mutation on the interaction
1,L67A,decreasing interaction strength
2,A83R,decreasing interaction strength
3,H86A,decreasing interaction strength
4,G90A,decreasing interaction strength
5,E101A,with no effect
